Patent US20040138106A1

Molecular target: Gly4→Compound A mutant myoglobin (myoglobin containing β-O-GlcNAc-L-serine at position 4, C-terminal His6 tag) (UniProt P02185)
Test: ELISA-like assay: 200 ng myoglobin immobilized, biotinylated BSII, streptavidin-alkaline phosphatase, p-nitrophenyl phosphate, A405

Sequence of Gly4→Compound A mutant myoglobin (myoglobin containing β-O-GlcNAc-L-serine at position 4, C-terminal His6 tag) (P02185 other isoform, or with tags, fused parts or gaps mutant): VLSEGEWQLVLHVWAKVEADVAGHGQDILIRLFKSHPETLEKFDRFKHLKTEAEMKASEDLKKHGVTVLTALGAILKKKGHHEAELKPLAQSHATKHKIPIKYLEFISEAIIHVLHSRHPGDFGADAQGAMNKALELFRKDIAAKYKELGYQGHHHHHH

Question: For “GlcNAc-specific lectin, Bandeiraea simplicifolia II (BSII), biotinylated”, which fold signal (A405) against wild-type myoglobin is on record?
Answer: > 200 fold
